In US20240263208A1, “CYTOCHROME P450 ENZYME” (HYPHA DISCOVERY LTD., priority 2021, published 2024):
Positions count from the first letter of the chain named. Names and notes keep the numbering of the source.

Experiments:
Assay type in all cases: biochemical
[1] = Oxidase activity testing against BIRB796; conditions: substrate BIRB796; Batch 2
Method: (§1) Lyophilised material of recombinant P450, ferredoxin and ferredoxin reductase proteins was made as described in Example 4 and reconstituted in high purity water to the original volume. Biocatalysis was performed with shaking incubation at 27° C. in the following conditions: 100 mM potassium phosphate pH 8.0, 5 mM MgCl2 (both present in the reconstituted enzyme preparation) and 0.1 mg/ml substrate compound such as ambroxide (Sigma-Aldrich, UK), carbamazepine (Sigma-Aldrich, UK), diclofenac (Sigma-Aldrich, UK), tivantinib (MedChemtronica, Sweden), clarithromycin (Tokyo Chemical Industry, Japan), sclareol (Sigma-Aldrich, UK), celecoxib (LC Laboratories, USA), buparvaquone (Sigma-Aldrich, UK), BIRB796 (MedChemExpress, USA), vanoxerine (CiVentiChem, USA), valsartan (Tokyo Chemical Industry, Japan), ruxolitinib (LC Laboratories, USA), perindopril (Selleckchem, USA), solifenacin (Key Organics, UK), 7-ethoxycoumarin (Tokyo Chemical Industry, Japan), tofacitinib (LC Laboratories, USA), ebastine (Key Organics, UK), efavirenz (Key Organics, UK), propanalol (Sigma-Aldrich, UK) and tolbutamide (Key Organics, UK).
(§2) Concentrations of P450, ferredoxin and ferredoxin reductase were as extracted (Example 4). Reactions were initiated by addition of 10× stock of cofactor mixture (50 mM G6P, 10 mM NADP+, 10 UN/ml G6PDH) to provide a final volume of e.g., 10 μl to 90 μl for 100 μl total reaction volumes. After 16-20 hours, reactions were extracted with an equal volume of acetonitrile, centrifuged to remove precipitated proteins and conversion assessed by UPLC-MS analysis.
(§3) UPLC Data were Obtained as Follows: • Column: Acquity UPLC BEH Shield RP18 1.7 μm 2.1 mm i.d. 50 mm length • Solvents: H2O, B: Acetonitrile, both with 0.1% Formic acid • Flow rate: 1.0 ml/min • Detector: Waters Acquity UPLC PDA (UV-Vis detection) and Waters Acquity UPLC QDA (MS)
(§4) Representative results for the % conversions of various substrates to products by enzymes with mutations at position T109 or L198 and double mutants at T109 and 1129/L198 are shown in Table 4 below.

[2] = Oxidase activity testing against ebastine; conditions: for Average % conversion: substrate Ebastine, Batch 2
Method: as §1, §2, §3, §4

[3] = Oxidase activity testing against efavirenz; conditions: substrate Efavirenz; Batch 2
Method: as §1, §2, §3, §4

[4] = Oxidase activity testing against 7-ethoxycoumarin; conditions: for Average % conversion: substrate 7-ethoxycoumarin, Batch 2
Method: as §1, §2, §3, §4

[5] = Oxidase activity testing against tofacitinib; conditions: substrate Tofacitinib; Batch 2
Method: as §1, §2, §3, §4

[6] = Oxidase activity testing against sclareol; conditions: substrate Sclareol; Batch 2; UPLC-MS UV or MS peak areas
Method: as §1, §2, §3, §4

[7] = Oxidase activity testing against celecoxib; conditions: substrate Celecoxib; Batch 2
Method: as §1, §2, §3, §4

[8] = Oxidase activity testing against propanalol; conditions: substrate Propanalol; Batch 2
Method: as §1, §2, §3, §4

[9] = Oxidase activity testing against vanoxerine; conditions: substrate Vanoxerine; Batch 2
Method: as §1, §2, §3, §4

[10] = Oxidase activity testing against clarithromycin; conditions: substrate Clarithromycin; Batch 2
Method: as §1, §2, §3, §4

[11] = Oxidase activity testing against solifenacin; conditions: for Average % conversion: substrate Solifenacin, Batch 2
Method: as §1, §2, §3, §4

[12] = Oxidase activity testing against valsartan; conditions: substrate Valsartan; Batch 2
Method: as §1, §2, §3, §4

[13] = Oxidase activity testing against perindopril; conditions: for Average % conversion: substrate Perindopril, Batch 2
Method: as §1, §2, §3, §4

[14] = Oxidase activity testing against tolbutamide; conditions: for Average % conversion: substrate Tolbutamide, Batch 2
Method: as §1, §2, §3, §4

[15] = Oxidase activity testing against ruxolitinib; conditions: substrate Ruxolitinib; Batch 2
Method: as §1, §2, §3, §4

[16] = Oxidase activity testing against carbamazepine; conditions: for +16 Da (1.18 min) 253 m/z: 2-hydroxycarbamazepine; for +16 Da (1.18 min) 253 m/z / +16 Da (1.14 min) 253 m/z / Parent (1.31 min) 237 m/z: relative MS peak area; for +16 Da (1.14 min) 253 m/z: carbamazepine epoxide; for Parent (1.31 min) 237 m/z: remaining carbamazepine, 0.1 mg/ml, 27° C., 16-20 hours; for Average % conversion: substrate carbamazepine, relative MS peak areas
Method: as §1, §2, §3
(§5) To confirm the identities of reaction products where known, their chromatographic retention time, mass and ultraviolet spectra were compared with those of authentic metabolite standards.
Representative results for the % conversions of carbamazepine to oxidised (+16 Da) products for single point mutants at position L198 are shown in Table 3 below.

[17] = Oxidase activity testing, lyophilised recombinant P450/ferredoxin SeuF08/ferredoxin reductase SCF15A against ambroxide; conditions: for +16 Da (1.50 min) 253 m/z / +16 Da (1.60 min) 253 m/z / +16 Da (2.04 min) 253 m/z: oxidised ambroxide product; for +16 Da (1.50 min) 253 m/z / +16 Da (1.60 min) 253 m/z / +16 Da (2.04 min) 253 m/z / Ambroxide (2.22 min) 237 m/z: relative MS peak area; for Ambroxide (2.22 min) 237 m/z: remaining substrate, 0.1 mg/ml ambroxide, 27° C., 16-20 hours; for Average % conversion: substrate ambroxide, relative MS peak areas
Method: as §1, §2, §3, §5
Representative results for the % conversions of ambroxide to oxidised (+16 Da) products for single point mutants at position T109 are shown in Table 2 below.

[18] = Oxidase activity testing against buparvaquone
Method: as §1, §2, §3, §4

B1: M30: P450SeuC10 with L198F and T109F double mutations, SEQ ID NO: 126 (protein)
chain: MKIGTTHLTRLRGLSMTELTDITGPAAQAETVAFPQDRTCPYHPPTGYDPLRDGRPLSRVTLYDGREVWLVTAQATARALLADPRLSTDRRRDGFPVPTPRFAAGRDRFLALLGLDDPEHHRQRRLLIPSFTLKRATAQRPWIQRIVDELLDAMIARGPVADLVSAFALPVPSMVICELLGVPYADHEFFEEQSRRLFRGPTGADTTDARDRLEAYLGDLIDAKAKEAEPGDGILDDLVHNRLRAGELDRSVLVSLAVILLVAGHETTANMISLGTYTLLQHPERLAELRADPSLLPAVVEELLRMLSIAEGLQRLALEDIEIDGITIRAGEGVLFSTSVINRDTAVYEDPDDLDFHRADRHHVAFGFGIHQCLGQNLARAELEIALGSLFTRLPGLRLAAPAEEIPFKPGDTVQGMLELPVTW
modifications: SeuC10M30
Average % conversion [1]: 38.5% | Average % conversion [2]: 9.7% | Average % conversion [3]: 0% | Average % conversion [4]: 38% | Average % conversion [5]: 33.3% | Average % conversion [6]: 31% | Average % conversion [7]: 21.6% | Average % conversion [8]: 0% | Average % conversion [9]: 79.1% | Average % conversion [10]: 0.9% | Average % conversion [11]: 3% | Average % conversion [12]: 17.1% | conversion of perindopril compared to wild-type (in words) [13]: significantly increased conversion | Average % conversion [13]: 61.4% | Average % conversion [14]: 35.7% | Average % conversion [15]: 99.1%

B2: SeuC10M8: P450SeuC10 with L198I mutation, SEQ ID NO: 20 (protein)
chain: B1 chain with F109T, F198I
modifications: SeuC10M8
+16 Da (1.18 min) 253 m/z [16]: 0.0% | +16 Da (1.14 min) 253 m/z [16]: 35.3% | Parent (1.31 min) 237 m/z [16]: 64.7% | Average % conversion [16]: 35.3%

B3: SeuC10M27: P450SeuC10 with T109V mutation, SEQ ID NO: 58 (protein)
chain: B1 chain with F109V, F198L
modifications: SeuC10M27
+16 Da (1.50 min) 253 m/z [17]: 58.6% | +16 Da (1.60 min) 253 m/z [17]: 0.9% | +16 Da (2.04 min) 253 m/z [17]: 2.3% | Ambroxide (2.22 min) 237 m/z [17]: 38.2% | Average % conversion [17]: 61.7%

B4: SeuC10M17: P450SeuC10 with L198D mutation, SEQ ID NO: 38 (protein)
chain: B1 chain with F109T, F198D
modifications: SeuC10M17
+16 Da (1.18 min) 253 m/z [16]: 0.0% | +16 Da (1.14 min) 253 m/z [16]: 3.2% | Parent (1.31 min) 237 m/z [16]: 96.8% | Average % conversion [16]: 3.2%

B5: SeuC10M14: P450SeuC10 with L198V mutation, SEQ ID NO: 32 (protein)
chain: B1 chain with F109T, F198V
modifications: SeuC10M14
+16 Da (1.18 min) 253 m/z [16]: 0.0% | +16 Da (1.14 min) 253 m/z [16]: 43.7% | Parent (1.31 min) 237 m/z [16]: 56.3% | Average % conversion [16]: 43.7%

B6: SeuC10M18: P450SeuC10 with L198H mutation, SEQ ID NO: 40 (protein)
chain: B1 chain with F109T, F198H
modifications: SeuC10M18
+16 Da (1.18 min) 253 m/z [16]: 0.0% | +16 Da (1.14 min) 253 m/z [16]: 14.6% | Parent (1.31 min) 237 m/z [16]: 85.4% | Average % conversion [16]: 14.6%

B7: SeuC10M26: P450SeuC10 with T109I mutation, SEQ ID NO: 56 (protein)
chain: B1 chain with F109I, F198L
modifications: SeuC10M26
+16 Da (1.50 min) 253 m/z [17]: 58.3% | +16 Da (1.60 min) 253 m/z [17]: 0.0% | +16 Da (2.04 min) 253 m/z [17]: 0.0% | Ambroxide (2.22 min) 237 m/z [17]: 41.7% | Average % conversion [17]: 58.3%

B8: SeuC10M16: P450SeuC10 with L198N mutation, SEQ ID NO: 36 (protein)
chain: B1 chain with F109T, F198N
modifications: SeuC10M16
+16 Da (1.18 min) 253 m/z [16]: 0.0% | +16 Da (1.14 min) 253 m/z [16]: 1.9% | Parent (1.31 min) 237 m/z [16]: 98.1% | Average % conversion [16]: 1.9%

B9: SeuC10M1: P450SeuC10 with T109R mutation, SEQ ID NO: 6 (protein)
chain: B1 chain with F109R, F198L
modifications: SeuC10M1
+16 Da (1.50 min) 253 m/z [17]: 40.7% | +16 Da (1.60 min) 253 m/z [17]: 0.0% | +16 Da (2.04 min) 253 m/z [17]: 0.0% | Ambroxide (2.22 min) 237 m/z [17]: 59.3% | Average % conversion [17]: 40.7%

B10: SeuC10M19: P450SeuC10 with L198Y mutation, SEQ ID NO: 42 (protein)
chain: B1 chain with F109T, F198Y
modifications: SeuC10M19
+16 Da (1.18 min) 253 m/z [16]: 0.0% | +16 Da (1.14 min) 253 m/z [16]: 3.9% | Parent (1.31 min) 237 m/z [16]: 96.1% | Average % conversion [16]: 3.8%

B11: M53: P450SeuC10 with T109P mutation, SEQ ID NO: 124 (protein)
chain: B1 chain with F109P, F198L
modifications: SeuC10M53
Average % conversion [1]: 36.3% | product at 1.38 minutes from ebastine ([2]; FIG. 9): increased production | Average % conversion [2]: 17.4% | Average % conversion [3]: 1.8% | conversion of 7-ethoxycoumarin compared to wild-type (in words) [4]: significantly increased conversion | Average % conversion [4]: 67.2% | conversion of buparvaquone compared to wild-type (in words) [18]: significantly increased conversion | product at 1.97 minutes from buparvaquone (hydroxylation of a t-butyl methyl group) ([18]; FIG. 8): increased production | Average % conversion ([18]; substrate Buparvaquone, Batch 2): 54.7% | Average % conversion [5]: 67.5% | Average % conversion [6]: 52.7% | Average % conversion [7]: 39.1% | Average % conversion [9]: 44.5% | conversion of solifenacin compared to wild-type (in words) [11]: significantly increased conversion | Average % conversion [11]: 33.6% | Average % conversion [12]: 14.3% | Average % conversion [13]: 46.5% | conversion of tolbutamide compared to wild-type (in words) [14]: significantly increased conversion | Average % conversion [14]: 77.6% | Average % conversion [15]: 98.6%

B12: SeuC10M12: P450SeuC10 with L198M mutation, SEQ ID NO: 28 (protein)
chain: B1 chain with F109T, F198M
modifications: SeuC10M12
+16 Da (1.18 min) 253 m/z [16]: 0.0% | +16 Da (1.14 min) 253 m/z [16]: 40.5% | Parent (1.31 min) 237 m/z [16]: 59.5% | Average % conversion [16]: 40.5%
